Experimental data taken from patent US20230240981A1 (THE REGENTS OF THE UNIVERSITY OF CALIFORNIA, priority 2020, published 2023).

Assays:
[1] = physiological pH
[2] = MALDI-TOF mass spectrum of native and microneedle-released insulin/glucagon; format: physicochemical; settings: throughout the polymerization process

## insulin: Human recombinant insulin purchased from Thermo Fisher Scientific
[1]
  solubility: high solubility
[2]
  integrity of protein released from microneedles: stayed intact
